Article PMC3333781, “Systematic mapping of two component response regulators to gene targets in a model sulfate reducing bacterium”

How the values were obtained:
Assay in all cases: EMSA; 10 mM Tris-HCl pH 7.5, 1 mM DTT, 50 mM KCl, 5 mM MgCl2, 25% glycerol, 1 ug/ml poly dI-dC, 50-100 fmol biotinylated DNA, 25-30 C, 20 min
Details in all cases: protein: recombinant; tags: C-terminal V5-6xHis; chain copies: 2; label: 5'-biotin top strand
[1] = target: T1, DVU2934 response regulator (Desulfovibrio vulgaris Hildenborough, UniProt Q727C1 1-472)
T1 sequence: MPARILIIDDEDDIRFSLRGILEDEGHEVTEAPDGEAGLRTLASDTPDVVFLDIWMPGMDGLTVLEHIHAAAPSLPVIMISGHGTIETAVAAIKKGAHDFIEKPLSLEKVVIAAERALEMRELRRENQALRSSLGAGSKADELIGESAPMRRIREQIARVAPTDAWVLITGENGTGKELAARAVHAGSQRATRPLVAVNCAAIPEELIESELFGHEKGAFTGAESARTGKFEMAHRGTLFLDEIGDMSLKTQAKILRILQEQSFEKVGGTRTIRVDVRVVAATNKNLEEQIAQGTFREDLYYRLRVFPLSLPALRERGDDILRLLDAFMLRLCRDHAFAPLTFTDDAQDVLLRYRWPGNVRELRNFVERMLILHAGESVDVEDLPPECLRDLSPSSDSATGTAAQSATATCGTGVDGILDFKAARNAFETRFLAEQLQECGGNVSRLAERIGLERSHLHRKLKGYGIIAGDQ

[2] = target: T2, DVU3023 response regulator (Desulfovibrio vulgaris Hildenborough, UniProt Q726T3 1-474)
T2 sequence: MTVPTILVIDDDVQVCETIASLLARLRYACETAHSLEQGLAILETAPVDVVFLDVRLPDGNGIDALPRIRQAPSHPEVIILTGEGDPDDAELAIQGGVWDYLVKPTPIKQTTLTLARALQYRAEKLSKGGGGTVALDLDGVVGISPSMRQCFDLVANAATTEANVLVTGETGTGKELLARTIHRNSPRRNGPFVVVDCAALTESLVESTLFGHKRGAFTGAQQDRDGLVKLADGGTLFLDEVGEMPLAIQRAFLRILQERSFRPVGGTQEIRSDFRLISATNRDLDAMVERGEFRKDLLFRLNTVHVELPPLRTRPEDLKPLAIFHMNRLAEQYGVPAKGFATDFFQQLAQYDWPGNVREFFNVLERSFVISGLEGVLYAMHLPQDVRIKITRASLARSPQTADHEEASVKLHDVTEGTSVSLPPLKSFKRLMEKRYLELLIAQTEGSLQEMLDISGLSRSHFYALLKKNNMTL

[3] = target: T3, DVU3305 response regulator (Desulfovibrio vulgaris Hildenborough, UniProt Q725X0 1-451)
T3 sequence: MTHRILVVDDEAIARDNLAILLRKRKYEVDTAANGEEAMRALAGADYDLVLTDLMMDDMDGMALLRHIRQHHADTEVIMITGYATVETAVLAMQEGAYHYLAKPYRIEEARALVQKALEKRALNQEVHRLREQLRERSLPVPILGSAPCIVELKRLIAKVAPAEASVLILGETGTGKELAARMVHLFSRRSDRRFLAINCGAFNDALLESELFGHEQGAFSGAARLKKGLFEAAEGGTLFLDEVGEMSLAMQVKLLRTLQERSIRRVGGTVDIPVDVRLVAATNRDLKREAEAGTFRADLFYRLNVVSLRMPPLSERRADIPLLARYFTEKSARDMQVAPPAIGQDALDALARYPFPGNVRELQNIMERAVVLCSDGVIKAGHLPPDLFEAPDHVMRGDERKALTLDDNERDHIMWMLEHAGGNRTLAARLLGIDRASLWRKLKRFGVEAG

[4] = target: T4, DVU3381 response regulator (Desulfovibrio vulgaris Hildenborough, UniProt Q725P3 1-459)
T4 sequence: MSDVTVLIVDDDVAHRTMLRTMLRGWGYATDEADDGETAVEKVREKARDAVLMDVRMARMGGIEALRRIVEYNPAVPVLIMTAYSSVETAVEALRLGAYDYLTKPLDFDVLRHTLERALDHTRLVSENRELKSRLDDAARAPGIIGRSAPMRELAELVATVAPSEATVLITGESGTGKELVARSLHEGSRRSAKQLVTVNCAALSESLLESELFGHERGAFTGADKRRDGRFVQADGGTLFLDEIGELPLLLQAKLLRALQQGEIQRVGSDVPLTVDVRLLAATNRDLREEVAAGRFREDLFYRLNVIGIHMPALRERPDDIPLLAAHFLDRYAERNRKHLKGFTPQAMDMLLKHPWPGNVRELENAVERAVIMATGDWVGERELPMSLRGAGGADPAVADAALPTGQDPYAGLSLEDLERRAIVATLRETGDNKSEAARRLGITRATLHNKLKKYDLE

[5] = target: T5, DVU1083 response regulator (PhoB) (Desulfovibrio vulgaris Hildenborough, UniProt Q72D47 1-229)
T5 sequence: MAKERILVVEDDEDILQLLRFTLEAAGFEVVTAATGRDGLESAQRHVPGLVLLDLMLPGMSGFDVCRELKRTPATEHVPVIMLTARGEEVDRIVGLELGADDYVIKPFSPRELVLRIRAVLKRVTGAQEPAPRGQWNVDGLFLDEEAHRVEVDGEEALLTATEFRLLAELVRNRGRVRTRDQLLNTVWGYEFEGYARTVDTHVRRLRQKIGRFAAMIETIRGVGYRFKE

[6] = target: T6, DVU2588 response regulator (Desulfovibrio vulgaris Hildenborough, UniProt Q728L5 1-226)
T6 sequence: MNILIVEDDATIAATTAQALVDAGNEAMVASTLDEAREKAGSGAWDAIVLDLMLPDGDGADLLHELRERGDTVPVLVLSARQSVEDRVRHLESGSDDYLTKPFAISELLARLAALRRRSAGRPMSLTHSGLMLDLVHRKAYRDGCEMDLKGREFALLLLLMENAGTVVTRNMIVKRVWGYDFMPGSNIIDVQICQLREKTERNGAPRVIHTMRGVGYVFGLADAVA

[7] = target: T7, DVU0946 response regulator (Desulfovibrio vulgaris Hildenborough, UniProt Q72DI3 1-476)
T7 sequence: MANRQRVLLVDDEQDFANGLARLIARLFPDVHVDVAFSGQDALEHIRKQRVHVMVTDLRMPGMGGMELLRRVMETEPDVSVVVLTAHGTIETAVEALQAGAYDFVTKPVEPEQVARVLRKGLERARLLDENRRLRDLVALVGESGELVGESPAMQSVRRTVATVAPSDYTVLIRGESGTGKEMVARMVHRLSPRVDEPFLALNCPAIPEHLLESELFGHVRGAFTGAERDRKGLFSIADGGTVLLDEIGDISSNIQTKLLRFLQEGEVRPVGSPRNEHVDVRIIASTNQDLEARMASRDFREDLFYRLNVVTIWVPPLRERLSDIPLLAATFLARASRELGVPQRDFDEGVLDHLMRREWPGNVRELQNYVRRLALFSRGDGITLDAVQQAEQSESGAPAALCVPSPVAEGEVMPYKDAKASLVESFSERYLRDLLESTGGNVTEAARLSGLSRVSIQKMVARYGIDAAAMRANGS

[8] = target: T8, DVU0539 response regulator (Desulfovibrio vulgaris Hildenborough, UniProt Q72EN8 1-467)
T8 sequence: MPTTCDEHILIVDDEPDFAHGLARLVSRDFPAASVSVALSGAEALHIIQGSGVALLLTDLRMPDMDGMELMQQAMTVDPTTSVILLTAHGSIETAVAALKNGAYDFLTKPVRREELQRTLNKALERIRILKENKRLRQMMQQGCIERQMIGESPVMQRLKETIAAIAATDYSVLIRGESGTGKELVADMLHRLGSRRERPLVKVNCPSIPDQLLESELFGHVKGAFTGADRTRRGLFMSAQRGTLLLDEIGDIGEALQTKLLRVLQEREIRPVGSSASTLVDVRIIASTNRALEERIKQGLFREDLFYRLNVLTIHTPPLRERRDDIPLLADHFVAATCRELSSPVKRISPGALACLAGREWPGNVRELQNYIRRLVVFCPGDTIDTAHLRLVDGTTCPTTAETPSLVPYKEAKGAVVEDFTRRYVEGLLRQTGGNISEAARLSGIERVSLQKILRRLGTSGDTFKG

[9] = target: T9, DVU0679 response regulator (Desulfovibrio vulgaris Hildenborough, UniProt Q72E99 1-488)
T9 sequence: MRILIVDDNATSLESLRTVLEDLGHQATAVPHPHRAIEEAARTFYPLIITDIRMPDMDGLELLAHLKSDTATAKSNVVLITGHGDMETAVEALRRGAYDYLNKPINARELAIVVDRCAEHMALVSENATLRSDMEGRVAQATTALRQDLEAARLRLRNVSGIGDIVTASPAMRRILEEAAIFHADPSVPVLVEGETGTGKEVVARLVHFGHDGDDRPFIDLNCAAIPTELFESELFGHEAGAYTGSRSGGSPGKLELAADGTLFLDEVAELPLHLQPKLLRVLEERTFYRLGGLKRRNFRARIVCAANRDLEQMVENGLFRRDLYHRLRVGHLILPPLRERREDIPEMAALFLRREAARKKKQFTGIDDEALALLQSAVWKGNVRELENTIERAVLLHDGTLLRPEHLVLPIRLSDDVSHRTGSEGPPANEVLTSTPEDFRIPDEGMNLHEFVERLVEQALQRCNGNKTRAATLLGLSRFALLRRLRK

B1: DVU2917 motif mut (dsDNA)
DNA 1: CTCGCCATGTGGACTGCAGAAGAGAGACTGTGCGTGG
DNA 2: CCACGCACAGTCTCTCTTCTGCAGTCCACATGGCGAG
Question: Does B1 bind [1]?
Answer: Result: no binding

B2: DVU3025 motif mut (dsDNA)
DNA 1: GCCACACGAACTGCGCTTTTCAATCAACGCTACCAC
DNA 2: GTGGTAGCGTTGATTGAAAAGCGCAGTTCGTGTGGC
Question: Does B2 bind [2]?
Answer: Result: no binding

B3: DVU3303 motif mut (dsDNA)
DNA 1: AAAGCCTCGTCATGGGATATCGTACACGAGGCCAC
DNA 2: GTGGCCTCGTGTACGATATCCCATGACGAGGCTTT
Question: Does B3 bind [3]?
Answer: Result: no binding

B4: DVU3384 motif mut (dsDNA)
DNA 1: CACGAATGGAATGTATTTTTCTTGCACCCATACAC
DNA 2: GTGTATGGGTGCAAGAAAAATACATTCCATTCGTG
Question: Does B4 bind [4]?
Answer: Result: no binding

B5: DVU1083 motif mut (dsDNA)
DNA 1: GTTGTAAAATGACAAACGGTTCTAGACGCTCTTCCA
DNA 2: TGGAAGAGCGTCTAGAACCGTTTGTCATTTTACAAC
Question: Does B5 bind [5]?
Answer: Result: no binding

B6: DVU0943 DVU2588-motif mut (dsDNA)
DNA 1: CGTCCTGCACCTAATCATTCTTAAGTTAAAAGCTGT
DNA 2: ACAGCTTTTAACTTAAGAATGATTAGGTGCAGGACG
Question: Does B6 bind [6]?
Answer: Result: no binding

B7: DVU0943 second site mut (dsDNA)
DNA 1: AAAGGGCTCGACAACAGATGTTCCATGCAAA
DNA 2: TTTGCATGGAACATCTGTTGTCGAGCCCTTT
Question: Which results are given for B7?
Answer: binding result [7]: no binding; binding result [8]: no binding

B8: DVU0677 motif mut (dsDNA)
DNA 1: AATCGCACGCGGAGAGTATTCGGATGTGCTTTTCCG
DNA 2: CGGAAAAGCACATCCGAATACTCTCCGCGTGCGATT
Question: Does B8 bind [9]?
Answer: Result: no binding
